# T1: Abp1, P15891
# T1 sequence (P15891 535-592, looked up): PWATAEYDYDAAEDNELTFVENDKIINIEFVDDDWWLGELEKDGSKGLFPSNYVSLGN
# T2: Bbc1, P47068
# T2 sequence (P47068 1-78, looked up): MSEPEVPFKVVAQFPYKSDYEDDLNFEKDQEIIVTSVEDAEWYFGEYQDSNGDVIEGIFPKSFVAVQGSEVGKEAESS
# T3: Boi1, P38041
# T3 sequence (P38041 1-86, looked up): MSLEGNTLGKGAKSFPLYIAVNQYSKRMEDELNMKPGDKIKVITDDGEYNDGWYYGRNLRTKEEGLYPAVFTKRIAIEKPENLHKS
# T4: Boi2, P39969
# T4 sequence (P39969 32-116, looked up): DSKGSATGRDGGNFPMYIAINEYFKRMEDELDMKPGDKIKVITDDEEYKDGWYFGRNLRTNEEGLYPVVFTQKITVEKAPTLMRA
# T5: Bud14, P27637
# T5 sequence (P27637 247-328, looked up): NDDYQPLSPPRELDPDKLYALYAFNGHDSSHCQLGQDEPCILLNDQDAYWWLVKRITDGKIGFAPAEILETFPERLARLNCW
# T6: Bzz1-1, P38822
# T6 sequence (P38822 478-572, looked up): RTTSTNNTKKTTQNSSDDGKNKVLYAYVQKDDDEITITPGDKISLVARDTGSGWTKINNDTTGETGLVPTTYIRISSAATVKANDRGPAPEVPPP
# T7: Bzz1-2, P38822
# T7 sequence (P38822 568-633, looked up): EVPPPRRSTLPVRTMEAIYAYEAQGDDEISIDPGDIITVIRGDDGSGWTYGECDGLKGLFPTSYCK
# T8: Cdc25, P04821
# T8 sequence (P04821 50-136, looked up): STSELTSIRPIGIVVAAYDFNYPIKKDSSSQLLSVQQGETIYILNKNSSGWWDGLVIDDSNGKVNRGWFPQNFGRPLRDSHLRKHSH
# T9: Cyk3, Q07533
# T9 sequence (Q07533 1-83, looked up): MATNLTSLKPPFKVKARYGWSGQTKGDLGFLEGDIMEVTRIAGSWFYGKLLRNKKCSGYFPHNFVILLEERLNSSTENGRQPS
# T10: Fus1, P11710
# T10 sequence (P11710 432-512, looked up): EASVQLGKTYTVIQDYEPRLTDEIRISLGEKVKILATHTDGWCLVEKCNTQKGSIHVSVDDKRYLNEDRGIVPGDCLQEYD
# T11: Hof1, Q05080
# T11 sequence (Q05080 590-669, looked up): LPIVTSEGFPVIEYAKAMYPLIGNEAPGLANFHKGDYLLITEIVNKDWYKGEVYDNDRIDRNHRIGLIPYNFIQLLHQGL
# T12: Hse1, P38753
# T12 sequence (P38753 208-285, looked up): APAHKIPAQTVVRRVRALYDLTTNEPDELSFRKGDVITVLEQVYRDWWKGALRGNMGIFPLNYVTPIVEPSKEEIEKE
# T13: Lsb1, P53281
# T13 sequence (P53281 45-122, looked up): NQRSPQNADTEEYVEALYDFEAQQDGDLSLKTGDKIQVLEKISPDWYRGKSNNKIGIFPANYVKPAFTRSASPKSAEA
# T14: Lsb3, P43603
# T14 sequence (P43603 385-451, looked up): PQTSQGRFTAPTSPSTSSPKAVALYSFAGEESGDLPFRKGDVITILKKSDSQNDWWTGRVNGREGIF
# T15: Lsb4, P32793
# T15 sequence (P32793 402-468, looked up): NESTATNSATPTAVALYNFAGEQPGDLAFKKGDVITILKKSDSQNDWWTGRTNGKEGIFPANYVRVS
# T16: Myo5, Q04439
# T16 sequence (Q04439 1072-1160, looked up): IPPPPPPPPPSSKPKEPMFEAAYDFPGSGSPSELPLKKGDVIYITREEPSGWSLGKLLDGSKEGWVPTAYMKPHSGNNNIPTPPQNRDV
# T17: Nbp2, Q12163
# T17 sequence (Q12163 103-180, looked up): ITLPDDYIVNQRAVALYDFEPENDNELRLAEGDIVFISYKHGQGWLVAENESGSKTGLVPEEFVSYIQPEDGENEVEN
# T18: Pex13, P80667
# T18 sequence (P80667 295-386, looked up): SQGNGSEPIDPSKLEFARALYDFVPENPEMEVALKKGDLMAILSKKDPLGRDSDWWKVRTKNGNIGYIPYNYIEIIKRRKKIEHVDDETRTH
# T19: Pin3, Q06449
# T19 sequence (Q06449 53-122, looked up): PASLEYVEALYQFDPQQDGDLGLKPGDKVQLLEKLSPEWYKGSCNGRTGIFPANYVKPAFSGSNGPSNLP
# T20: Sla1-2, P32790
# T20 sequence (P32790 60-140, looked up): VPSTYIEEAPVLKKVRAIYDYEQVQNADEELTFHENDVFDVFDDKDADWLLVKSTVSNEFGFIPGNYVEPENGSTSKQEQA
# T21: Sla1-3, P32790
# T21 sequence (P32790 344-424, looked up): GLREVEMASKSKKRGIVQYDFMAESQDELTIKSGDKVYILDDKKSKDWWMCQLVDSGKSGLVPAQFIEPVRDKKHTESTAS
# B1: unnamed (peptide)
# chain: RRLRDKYKLPIVDAD
# B2: unnamed (peptide)
# chain: LLRRTIPKRPFYHVL
# B3: unnamed (peptide)
# chain: NFFRKKLGIPRKLKR
# Target: T1, Abp1, P15891
# Assay: SPOT array
# Details: median of control spots 935
row,SPOT intensity,Binder
1,18,B1
2,18,B2
3,99,B3

# Target: T2, Bbc1, P47068
# Assay: SPOT array
# Details: median of control spots 796
row,SPOT intensity,Binder
1,14,B1
2,184,B2
3,101,B3

# Target: Bem1-1, P29366
# Assay: SPOT array
# Details: median of control spots 4282
# Sequence of Bem1-1, P29366 (P29366 55-141): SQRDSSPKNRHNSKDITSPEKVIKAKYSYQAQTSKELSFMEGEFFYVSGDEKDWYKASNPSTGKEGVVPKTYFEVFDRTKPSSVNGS
row,SPOT intensity,Binder
1,0,B1
2,0,B2
3,1,B3

# Target: Bem1-2, P29366
# Assay: SPOT array
# Details: median of control spots 4347
# Sequence of Bem1-2, P29366 (P29366 139-227): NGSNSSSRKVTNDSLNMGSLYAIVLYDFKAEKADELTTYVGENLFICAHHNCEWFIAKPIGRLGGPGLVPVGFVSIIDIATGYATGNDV
row,SPOT intensity,Binder
1,2,B1
2,108,B2
3,13,B3

# Target: T3, Boi1, P38041
# Assay: SPOT array
# Details: median of control spots 1162
row,SPOT intensity,Binder
1,6,B1
2,7,B2
3,14,B3

# Target: T4, Boi2, P39969
# Assay: SPOT array
# Details: median of control spots 1161
row,SPOT intensity,Binder
1,0,B1
2,2,B2
3,2,B3

# Target: T5, Bud14, P27637
# Assay: SPOT array
# Details: median of control spots 956
row,SPOT intensity,Binder
1,26,B1
2,13,B2
3,43,B3

# Target: T6, Bzz1-1, P38822
# Assay: SPOT array
# Details: median of control spots 4446
row,SPOT intensity,Binder
1,0,B1
2,0,B2
3,0,B3

# Target: T7, Bzz1-2, P38822
# Assay: SPOT array
# Details: median of control spots 4538
row,SPOT intensity,Binder
1,2,B1
2,13,B2
3,7,B3

# Target: T8, Cdc25, P04821
# Assay: SPOT array
# Details: median of control spots 969
row,SPOT intensity,Binder
1,18,B1
2,44,B2
3,138,B3

# Target: T9, Cyk3, Q07533
# Assay: SPOT array
# Details: median of control spots 1451
row,SPOT intensity,Binder
1,1,B1
2,0,B2
3,4,B3

# Target: T10, Fus1, P11710
# Assay: SPOT array
# Details: median of control spots 1200
row,SPOT intensity,Binder
1,58,B1
2,14,B2
3,219,B3

# Target: GST
# Assay: SPOT array
# Details: median of control spots 978
row,SPOT intensity,Binder
1,0,B1
2,1,B2
3,0,B3

# Target: T11, Hof1, Q05080
# Assay: SPOT array
# Details: median of control spots 4086
row,SPOT intensity,Binder
1,9,B1
2,52,B2
3,29,B3

# Target: T12, Hse1, P38753
# Assay: SPOT array
# Details: median of control spots 1727
row,SPOT intensity,Binder
1,9,B1
2,43,B2
3,130,B3

# Target: T13, Lsb1, P53281
# Assay: SPOT array
# Details: median of control spots 388
row,SPOT intensity,Binder
1,48,B1
2,139,B2
3,234,B3

# Target: T14, Lsb3, P43603
# Assay: SPOT array
# Details: median of control spots 406
row,SPOT intensity,Binder
1,0,B1
2,2,B2
3,1,B3

# Target: T15, Lsb4, P32793
# Assay: SPOT array
# Details: median of control spots 397
row,SPOT intensity,Binder
1,0,B1
2,2,B2
3,1,B3

# Target: Myo3, P36006
# Assay: SPOT array
# Details: median of control spots 468
row,SPOT intensity,Binder
1,0,B1
2,0,B2
3,3,B3

# Target: T16, Myo5, Q04439
# Assay: SPOT array
# Details: median of control spots 471
row,SPOT intensity,Binder
1,0,B1
2,0,B2
3,0,B3

# Target: T17, Nbp2, Q12163
# Assay: SPOT array
# Details: median of control spots 357
row,SPOT intensity,Binder
1,7,B1
2,100,B2
3,72,B3

# Target: T18, Pex13, P80667
# Assay: SPOT array
# Details: median of control spots 1341
row,SPOT intensity,Binder
1,0,B1
2,12,B2
3,14,B3

# Target: T19, Pin3, Q06449
# Assay: SPOT array
# Details: median of control spots 2171
row,SPOT intensity,Binder
1,0,B1
2,0,B2
3,7,B3

# Target: Rvs167, P39743
# Assay: SPOT array
# Details: median of control spots 2707
# Sequence of Rvs167, P39743 (P39743 419-482): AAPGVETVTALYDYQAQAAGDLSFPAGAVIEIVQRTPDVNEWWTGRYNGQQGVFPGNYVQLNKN
row,SPOT intensity,Binder
1,1,B1
2,31,B2
3,3,B3

# Target: Sho1, P40073
# Assay: SPOT array
# Details: median of control spots 1148
# Sequence of Sho1, P40073 (P40073 287-367): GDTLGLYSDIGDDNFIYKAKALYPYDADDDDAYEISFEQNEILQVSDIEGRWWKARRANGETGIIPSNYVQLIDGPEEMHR
row,SPOT intensity,Binder
1,19,B1
2,26,B2
3,107,B3

# Target: T20, Sla1-2, P32790
# Assay: SPOT array
# Details: median of control spots 712
row,SPOT intensity,Binder
1,0,B1
2,0,B2
3,0,B3

# Target: T21, Sla1-3, P32790
# Assay: SPOT array
# Details: median of control spots 5475
row,SPOT intensity,Binder
1,34,B1
2,245,B2
3,58,B3

# Source: publication PMC2756588
